The values that follow come from patent US20260250421A1 (BIOCYTOGEN PHARMACEUTICALS BEIJING, published 2026).

Test [1] addresses T1, dog PTK7 on dog cancer cell lines (dog, UniProt A0A8I3N574 31-1070).
T1 construct: whole, on cells; Endogenous protein on dog tumour cell lines; also called PTK7 on CMT-U27 and D-17 cells; dog cancer cells
T1 sequence: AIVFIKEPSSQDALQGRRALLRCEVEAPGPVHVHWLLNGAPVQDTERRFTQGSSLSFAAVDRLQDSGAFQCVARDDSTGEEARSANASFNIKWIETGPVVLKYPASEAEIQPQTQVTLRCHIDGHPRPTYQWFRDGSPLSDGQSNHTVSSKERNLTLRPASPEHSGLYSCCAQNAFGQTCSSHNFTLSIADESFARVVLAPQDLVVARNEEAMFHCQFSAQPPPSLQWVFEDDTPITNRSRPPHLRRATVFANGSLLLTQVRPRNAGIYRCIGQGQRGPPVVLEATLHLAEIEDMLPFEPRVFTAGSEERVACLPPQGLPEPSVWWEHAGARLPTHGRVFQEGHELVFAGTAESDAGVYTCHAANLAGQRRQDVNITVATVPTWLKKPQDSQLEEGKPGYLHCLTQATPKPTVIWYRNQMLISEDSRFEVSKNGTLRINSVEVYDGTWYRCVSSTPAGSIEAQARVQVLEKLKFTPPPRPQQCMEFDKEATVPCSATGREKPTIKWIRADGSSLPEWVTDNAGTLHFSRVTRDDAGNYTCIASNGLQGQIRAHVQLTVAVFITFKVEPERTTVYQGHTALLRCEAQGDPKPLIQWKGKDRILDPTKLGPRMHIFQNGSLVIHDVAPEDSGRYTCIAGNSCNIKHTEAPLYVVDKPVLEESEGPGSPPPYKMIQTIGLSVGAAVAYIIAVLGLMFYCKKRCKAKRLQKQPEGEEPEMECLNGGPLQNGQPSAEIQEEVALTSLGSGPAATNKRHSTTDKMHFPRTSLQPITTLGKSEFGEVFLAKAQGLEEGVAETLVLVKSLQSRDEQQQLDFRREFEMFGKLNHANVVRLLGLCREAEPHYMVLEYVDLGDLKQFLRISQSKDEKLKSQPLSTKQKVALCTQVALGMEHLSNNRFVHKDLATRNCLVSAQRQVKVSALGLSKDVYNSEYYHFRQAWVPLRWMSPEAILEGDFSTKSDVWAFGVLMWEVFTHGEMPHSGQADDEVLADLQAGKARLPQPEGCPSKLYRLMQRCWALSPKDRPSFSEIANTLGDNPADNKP
The test can be described thus: flow cytometry, D-17 dog cells, Ab 5 ug/mL. As for the experimental part: The binding activity of anti-PTK7 antibodies to cancer cell lines was verified by flow cytometry. […] Purified anti-PTK7 antibody with a concentration of 5 μg/mL was added to each well and was incubated at 4° C. for 30 minutes. […] The cells were collected, and the mean fluorescence intensity (MFI) was determined. Human IgG1 was used as ISO control.

Test [2] deals with T2, His-tagged human PTK7 protein (human, UniProt Q13308 31-704).
T2 construct: Bought protein; also called hPTK7-His; not shown: His tag
T2 sequence: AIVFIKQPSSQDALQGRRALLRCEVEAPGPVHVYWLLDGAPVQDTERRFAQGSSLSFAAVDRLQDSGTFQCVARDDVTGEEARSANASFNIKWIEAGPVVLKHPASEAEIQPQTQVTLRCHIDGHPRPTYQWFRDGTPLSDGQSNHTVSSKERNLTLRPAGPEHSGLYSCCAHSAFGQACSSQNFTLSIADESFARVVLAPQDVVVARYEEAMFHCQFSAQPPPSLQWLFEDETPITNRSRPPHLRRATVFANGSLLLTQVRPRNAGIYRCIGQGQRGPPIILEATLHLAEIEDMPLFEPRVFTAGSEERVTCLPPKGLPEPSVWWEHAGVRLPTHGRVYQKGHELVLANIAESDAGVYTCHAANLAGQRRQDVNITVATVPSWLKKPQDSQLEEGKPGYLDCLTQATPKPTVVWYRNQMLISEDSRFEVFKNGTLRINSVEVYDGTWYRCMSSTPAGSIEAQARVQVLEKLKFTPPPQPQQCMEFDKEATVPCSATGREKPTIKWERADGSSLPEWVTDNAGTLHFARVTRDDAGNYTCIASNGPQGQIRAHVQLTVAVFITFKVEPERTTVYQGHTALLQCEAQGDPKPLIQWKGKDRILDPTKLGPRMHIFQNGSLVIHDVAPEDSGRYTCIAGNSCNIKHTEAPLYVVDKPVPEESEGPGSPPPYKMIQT
The test can be described thus: BLI Octet binning on hPTK7-His; competitor 3C4. As for the experimental part: Relative positions of target protein epitope between a pair of purified anti-PTK7 antibodies were analyzed by Biolayer Interferometry (BLI) using ForteBio Octet system at 30° C. A total of […] purified antibodies were used: 1A7, 1A11, 1F2, 2A5, 2D11, 2F5, 3C4 and 3E6.
1×HBS-EP+ buffer (10 mM 4-(2-hydroxyethyl)-1-piperazineethanesulfonic acid (HEPES), 150 mM NaCl, 3 mM ethylenediaminetetraacetic acid (EDTA) and 0.05% P20, pH7.4) diluted from HBS-EP+ buffer (10×) was used as the running buffer throughout the experiment. His-tagged human PTK7 protein was captured at a flow rate of 10 μL/min, and 200 nM of antibody (Analyte 1) was injected at a flow rate of 30 μL/min to bind the ligand. Another antibody (Analyte 2) was injected under the same conditions to determine whether the binding of different antibodies interfered with each other. The binding time was 300 s for each antibody.
The binding value of each antibody was obtained using Data Analysis HT 12.0. To quantify the interference of one antibody binding to another, a binding ratio was calculated to compare each pair of antibodies. The binding ratio is defined as the binding value of the second antibody (Analyte 2), divided by the binding value of the first antibody (Analyte 1). […] In general, antibody pairs that interfere with each other have the same or overlapping epitopes.

Changes are numbered by the printed parent chain.

B1: 3C4 (antibody, V domains shown)
VH: QVQLEQSRAEVKKPGESLRISCKGSGYSFTSYWISWVRQMPGKGLEWMGRIDPSDSYTNYNPSFQGHVTISADKSISTAYLQWSSLKASDTAMYYCARRDGSYFDFDYWGQGTLVTVSS
VL: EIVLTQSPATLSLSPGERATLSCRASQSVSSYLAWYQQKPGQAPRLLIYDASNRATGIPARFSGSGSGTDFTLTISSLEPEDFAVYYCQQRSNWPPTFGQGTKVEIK
notes: also called anti-PTK7 antibody 3C4
Take B1: the MFI in test [1] is 34600. The binding ratio in test [2] was 0.16.

B2: 3E6 (antibody, V domains shown)
VH: B1 VH with E5V, Q6E, R8G, K23R, N59K, N61S, S102D
VL: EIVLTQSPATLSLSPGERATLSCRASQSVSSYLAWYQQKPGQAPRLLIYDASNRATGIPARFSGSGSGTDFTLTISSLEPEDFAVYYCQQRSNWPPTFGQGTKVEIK
notes: also called anti-PTK7 antibody 3E6
For B2, the MFI in test [1] is 86300. The binding ratio in test [2] came out at 0.11.

B3: 1A7 (antibody, human IgG1, V domains shown)
VH: QVQLVESGGGVVQPGRSLRLSCAASGFTFSNYGMHWVRQAPGKGLEWVAVIYYDGSNKFYADSVKGRFTISRDNSKNTLYLQMSSLRAEDTAVYYCARDVAPPGSRAEYFHHWGQGTLVTVSS
VL: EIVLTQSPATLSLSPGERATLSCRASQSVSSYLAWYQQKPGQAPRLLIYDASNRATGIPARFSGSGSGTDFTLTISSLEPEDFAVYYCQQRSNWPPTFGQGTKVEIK
notes: also called anti-PTK7 antibody 1A7
For the molecule B3, the MFI in test [1] amounted to 120000. Besides, in test [2], the binding ratio was determined as 0.66.

B4: 2F5 (antibody, V domains shown)
VH: B3 VH with A23V, V50I, F59Y, S84N, P102A, P103A, F110L
VL: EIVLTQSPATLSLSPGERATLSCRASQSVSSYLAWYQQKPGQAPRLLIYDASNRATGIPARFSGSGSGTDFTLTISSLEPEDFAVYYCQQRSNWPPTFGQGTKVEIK
notes: also called anti-PTK7 antibody 2F5
In test [1], B4 registered an MFI of 131000. Further, the binding ratio in test [2] stood at 0.71.

B5: 2D11 (antibody, V domains shown)
VH: B3 VH with N31S, Y52F, F59Y, S84N, A92S, P102A, H111Q, H112N
VL: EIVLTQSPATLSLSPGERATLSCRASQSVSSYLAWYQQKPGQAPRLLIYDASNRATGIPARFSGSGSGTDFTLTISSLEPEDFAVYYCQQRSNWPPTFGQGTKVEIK
notes: also called anti-PTK7 antibody 2D11
B5: the MFI in test [1] is 106000. Moreover, the binding ratio in test [2] was determined as 0.81.

B6: 2A5 (antibody, V domains shown)
VH: B3 VH with E6Q, Y52W, S56R, F59Y, S84N, P103A, H111Q, H112N
VL: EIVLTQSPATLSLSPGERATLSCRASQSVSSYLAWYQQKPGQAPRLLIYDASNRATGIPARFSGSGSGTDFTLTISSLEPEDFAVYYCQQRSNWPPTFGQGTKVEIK
notes: also called anti-PTK7 antibody 2A5
Molecule B6 gave an MFI in test [1] of 95900. Moreover, the binding ratio in test [2] is 0.62.

B7: 1F2 (antibody, V domains shown)
VH: QVQLVQSGGGLVQPGGSLRLSCAASGFTFSRYEMNWVRQAPGKGLEWVSYINSIGSAINYADSVKGRFTISRDNAKNSLYLQMRSLRAEDTAVYYCVREDNWNPGYWGQGTLVTVSS
VL: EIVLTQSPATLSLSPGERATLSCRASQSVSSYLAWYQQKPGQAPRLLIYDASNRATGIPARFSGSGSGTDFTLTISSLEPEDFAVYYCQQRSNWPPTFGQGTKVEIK
notes: also called anti-PTK7 antibody 1F2
In test [1], B7 registered an MFI of 64100. Further, the binding ratio in test [2] is 0.48.

B8: 1A11 (antibody, V domains shown)
VH: QVQLVQSGPGLVKPSETLSLTCTVSGGSINSYYWNWIRQPPGKGLEWIGYIYYSGSTNYNPSLKSRVTISVDTSKNQFSLKLSSVTAADTAVYYCARDPHDYIRGHFDLWGRGTLFTVSS
VL: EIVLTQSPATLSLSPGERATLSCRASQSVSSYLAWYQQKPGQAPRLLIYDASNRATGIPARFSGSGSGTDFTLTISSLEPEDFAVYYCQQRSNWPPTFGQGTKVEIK
notes: also called anti-PTK7 antibody 1A11
As for B8, the MFI in test [1] amounted to 90600. The binding ratio in test [2] came out at 0.67.
